Source: US4797472A, “New peptide derivatives” (KabiVitrum AB, priority 1986, dated 1989)
Square brackets hold non-standard residues; d marks the D form. Peptide text beside a SMILES is read from it. * marks the point of attachment. pNA = O=[N+]([O-])c1ccc(N*)cc1; Cbz = O=C(OCc1ccccc1)*

Columns and labels:
FXa human = molecular target: T1, FXa human (Homo sapiens, UniProt P00742); assay: Determination of kinetic constants for FXa human (plasma activated with RVV+CaCl2); format: biochemical; settings: for Km: substrate 0.1-0.7 mmol/l, trisbuffer pH 7.0, I=0.25, polybrene, 37° C.
T1 construct: from tissue; host or cells: human plasma
Protocol: The kinetic data for the substrates are determined by measuring the initial velocity of hydrolysis (Vi) at different substrate concentrations (Si) and at constant enzyme concentrations (Eo). The binding constant (Km) and the maximum velocity (Vmax) are obtained in known manner from Lineweaver-Burk-plot, then the Kcat is calculated (Hemker H. C. loc. cit.)
The substrates in concentrations between 0.1-0.7 mmol/l (Si) are mixed with FXa human plasma and treated according to the method as described by Aurell; L., et al. (Perspectives in Hemostatis, Ed. Fareed J. et al, New York, Pergamon Press 1981, p. 382-388).
10 μl test plasma, control or standard and 200 μl trisbuffer solution (0.05 mol/l tris, pH 7.0, I=0.25 (NaCl)), polybrene (0.1 g/l) are mixed and incubated at 37° C. for 2-4 minutes. 200 μl substrate (37° C.) in concentrations between 0.1-0.7 mmol/l dissolved in trisbuffer solution prepared according to the above are added. The mixture is well stirred and within 30 seconds 200 μl RVV+CaCl2 (20°-25° C.) are added and the mixture is stirred. The absorbance change is measured at once in a spectrophotometer at 405 nm and 37° C.

Thrombin bovine = molecular target: T2, Thrombin bovine (Bos taurus, UniProt P00735); assay: Determination of thrombin sensitivity; format: biochemical; settings: for Km: substrate 0.1-0.4 mmol/l
T2 construct: Thrombin bovine (KabiVitrum) with a constant concentration E0 =1.3 nmol/l; purchased KabiVitrum

FXa bovine = FXa bovine (Bos taurus, UniProt P00743); assay: Determination of the kinetic constants for FXa bovine (chromogenic/fluorogenic substrate hydrolysis)
Protocol: (§1) Enzymes and substrates are mixed in a buffer solution at -37° C. The absorbance change per minute is measured at 405 nm in a spectrophotometer (pNA-substrate) or in a spectrofluorometer at excitation wavelength 380 nm and emission wavelength 440 nm (AMC-substrate).
(§2) FXa bovine (KabiVitrum) with a constant enzyme concentration
E0 =4 nmol/l (pNA-substrate)
E0 =2 nmol/l (AMC-substrate)
(§3) and the substrate in concentrations between 0.01-0.4 mmol/l (Si) are mixed in a trisbuffer solution 0.05 mol/l, pH=8.3, I=0.25 (NaCl) at 37° C. Absorbance change per minute is measured at 405 nm in a spectrophotometer for pNA-substrate and in a spectrofluorometer at emission wavelength 440 nm for AMC-substrate, respectively.

[1] = substrate: COc1ccc(COC(=O)N[C@H](CCCNC(=N)N)C(=O)NCC(=O)N[C@@H](CCCNC(=N)N)C(=O)Nc2ccc([N+](=O)[O-])cc2)cc1; assay: purified protein, by the assay type; settings: other: FXa bovine E0=4 nmol/l (pNA-substrate) or 2 nmol/l (AMC-substrate), substrate 0.01-0.4 mmol/l, trisbuffer 0.05 mol/l, pH 8.3, I=0.25, 37° C.
Protocol: as §1, §2
E0 =4 nmol/l (pNA-substrate)
E0 =2 nmol/l (AMC-substrate)
as §3

[2] = substrate: N=C(N)NCCC[C@H](NC(=O)CNC(=O)[C@@H](CCCNC(=N)N)NS(=O)(=O)Cc1ccccc1)C(=O)Nc1ccc([N+](=O)[O-])cc1; assay: purified protein, by the assay type; settings: other: FXa bovine E0=4 nmol/l (pNA-substrate) or 2 nmol/l (AMC-substrate), substrate 0.01-0.4 mmol/l, trisbuffer 0.05 mol/l, pH 8.3, I=0.25, 37° C.
Protocol: as §1, §2
E0 =4 nmol/l (pNA-substrate)
E0 =2 nmol/l (AMC-substrate)
as §3

[3] = substrate: CC(C)C[C@@H](NS(C)(=O)=O)C(=O)NCC(=O)N[C@@H](CCCNC(=N)N)C(=O)Nc1ccc([N+](=O)[O-])cc1; assay: purified protein, by the assay type; settings: other: FXa bovine E0=4 nmol/l (pNA-substrate) or 2 nmol/l (AMC-substrate), substrate 0.01-0.4 mmol/l, trisbuffer 0.05 mol/l, pH 8.3, I=0.25, 37° C.
Protocol: as §1, §2
E0 =4 nmol/l (pNA-substrate)
E0 =2 nmol/l (AMC-substrate)
as §3

[4] = substrate: N=C(N)NCCC[C@H](NC(=O)CNC(=O)[C@@H](CCCNC(=N)N)NS(=O)(=O)c1ccc(Cl)cc1)C(=O)Nc1ccc([N+](=O)[O-])cc1; assay: purified protein, by the assay type; settings: other: FXa bovine E0=4 nmol/l (pNA-substrate) or 2 nmol/l (AMC-substrate), substrate 0.01-0.4 mmol/l, trisbuffer 0.05 mol/l, pH 8.3, I=0.25, 37° C.
Protocol: as §1, §2
E0 =4 nmol/l (pNA-substrate)
E0 =2 nmol/l (AMC-substrate)
as §3

[5] = substrate: COc1ccc(S(=O)(=O)N[C@H](CCCNC(=N)N)C(=O)NCC(=O)N[C@@H](CCCNC(=N)N)C(=O)Nc2ccc([N+](=O)[O-])cc2)cc1; assay: purified protein, by the assay type; settings: other: FXa bovine E0=4 nmol/l (pNA-substrate) or 2 nmol/l (AMC-substrate), substrate 0.01-0.4 mmol/l, trisbuffer 0.05 mol/l, pH 8.3, I=0.25, 37° C.
Protocol: as §1, §2
E0 =4 nmol/l (pNA-substrate)
E0 =2 nmol/l (AMC-substrate)
as §3

[6] = substrate: N=C(N)NCCC[C@H](NC(=O)CNC(=O)[C@@H](CCCNC(=N)N)NS(=O)(=O)c1ccc2ccccc2c1)C(=O)Nc1ccc([N+](=O)[O-])cc1; assay: purified protein, by the assay type; settings: other: FXa bovine E0=4 nmol/l (pNA-substrate) or 2 nmol/l (AMC-substrate), substrate 0.01-0.4 mmol/l, trisbuffer 0.05 mol/l, pH 8.3, I=0.25, 37° C.
Protocol: as §1, §2
E0 =4 nmol/l (pNA-substrate)
E0 =2 nmol/l (AMC-substrate)
as §3

[7] = substrate: N=C(N)NCCC[C@H](NC(=O)CNC(=O)[C@@H](CCCNC(=N)N)NC(=O)OCc1ccc([N+](=O)[O-])cc1)C(=O)Nc1ccc([N+](=O)[O-])cc1; assay: purified protein, by the assay type; settings: other: FXa bovine E0=4 nmol/l (pNA-substrate) or 2 nmol/l (AMC-substrate), substrate 0.01-0.4 mmol/l, trisbuffer 0.05 mol/l, pH 8.3, I=0.25, 37° C.
Protocol: as §1, §2
E0 =4 nmol/l (pNA-substrate)
E0 =2 nmol/l (AMC-substrate)
as §3

[8] = substrate: N=C(N)NCCC[C@H](NC(=O)CNC(=O)[C@@H](CCCNC(=N)N)NC(=O)OCc1ccccc1)C(=O)Nc1ccc([N+](=O)[O-])cc1; assay: purified protein, by the assay type; settings: other: FXa bovine E0=4 nmol/l (pNA-substrate) or 2 nmol/l (AMC-substrate), substrate 0.01-0.4 mmol/l, trisbuffer 0.05 mol/l, pH 8.3, I=0.25, 37° C.
Protocol: as §1, §2
E0 =4 nmol/l (pNA-substrate)
E0 =2 nmol/l (AMC-substrate)
as §3

[9] = substrate: CC(C)(C)OC(=O)N[C@H](CCCNC(=N)N)C(=O)NCC(=O)N[C@@H](CCCNC(=N)N)C(=O)Nc1ccc([N+](=O)[O-])cc1; assay: purified protein, by the assay type; settings: other: FXa bovine E0=4 nmol/l (pNA-substrate) or 2 nmol/l (AMC-substrate), substrate 0.01-0.4 mmol/l, trisbuffer 0.05 mol/l, pH 8.3, I=0.25, 37° C.
Protocol: as §1, §2
E0 =4 nmol/l (pNA-substrate)
E0 =2 nmol/l (AMC-substrate)
as §3

[10] = substrate: N=C(N)NCCC[C@H](NC(=O)CNC(=O)[C@@H](CCCNC(=N)N)NS(=O)(=O)c1ccccc1)C(=O)Nc1ccc([N+](=O)[O-])cc1; assay: purified protein, by the assay type; settings: other: FXa bovine E0=4 nmol/l (pNA-substrate) or 2 nmol/l (AMC-substrate), substrate 0.01-0.4 mmol/l, trisbuffer 0.05 mol/l, pH 8.3, I=0.25, 37° C.
Protocol: as §1, §2
E0 =4 nmol/l (pNA-substrate)
E0 =2 nmol/l (AMC-substrate)
as §3

[11] = substrate: CCS(=O)(=O)N[C@H](CCCNC(=N)N)C(=O)NCC(=O)N[C@@H](CCCNC(=N)N)C(=O)Nc1ccc([N+](=O)[O-])cc1; assay: purified protein, by the assay type; settings: other: FXa bovine E0=4 nmol/l (pNA-substrate) or 2 nmol/l (AMC-substrate), substrate 0.01-0.4 mmol/l, trisbuffer 0.05 mol/l, pH 8.3, I=0.25, 37° C.
Protocol: as §1, §2
E0 =4 nmol/l (pNA-substrate)
E0 =2 nmol/l (AMC-substrate)
as §3

[12] = substrate: N=C(N)NCCC[C@H](NC(=O)CNC(=O)[C@@H](CCCNC(=N)N)NS(=O)(=O)c1ccc([N+](=O)[O-])cc1)C(=O)Nc1ccc([N+](=O)[O-])cc1; assay: purified protein, by the assay type; settings: other: FXa bovine E0=4 nmol/l (pNA-substrate) or 2 nmol/l (AMC-substrate), substrate 0.01-0.4 mmol/l, trisbuffer 0.05 mol/l, pH 8.3, I=0.25, 37° C.
Protocol: as §1, §2
E0 =4 nmol/l (pNA-substrate)
E0 =2 nmol/l (AMC-substrate)
as §3

[13] = substrate: CCOC(=O)N[C@H](CCCNC(=N)N)C(=O)NCC(=O)N[C@@H](CCCNC(=N)N)C(=O)Nc1ccc([N+](=O)[O-])cc1; assay: purified protein, by the assay type; settings: other: FXa bovine E0=4 nmol/l (pNA-substrate) or 2 nmol/l (AMC-substrate), substrate 0.01-0.4 mmol/l, trisbuffer 0.05 mol/l, pH 8.3, I=0.25, 37° C.
Protocol: as §1, §2
E0 =4 nmol/l (pNA-substrate)
E0 =2 nmol/l (AMC-substrate)
as §3

[14] = substrate: Cc1ccc(S(=O)(=O)N[C@H](CCCNC(=N)N)C(=O)NCC(=O)N[C@@H](CCCNC(=N)N)C(=O)Nc2ccc([N+](=O)[O-])cc2)cc1; assay: purified protein, by the assay type; settings: other: FXa bovine E0=4 nmol/l (pNA-substrate) or 2 nmol/l (AMC-substrate), substrate 0.01-0.4 mmol/l, trisbuffer 0.05 mol/l, pH 8.3, I=0.25, 37° C.
Protocol: as §1, §2
E0 =4 nmol/l (pNA-substrate)
E0 =2 nmol/l (AMC-substrate)
as §3

[15] = substrate: Cc1cc(=O)oc2cc(NC(=O)[C@H](CCCNC(=N)N)NC(=O)CNC(=O)[C@@H](CCCNC(=N)N)NC(=O)OCc3ccccc3)ccc12; assay: purified protein, by the assay type; settings: other: FXa bovine E0=4 nmol/l (pNA-substrate) or 2 nmol/l (AMC-substrate), substrate 0.01-0.4 mmol/l, trisbuffer 0.05 mol/l, pH 8.3, I=0.25, 37° C.
Protocol: as §1, §2
E0 =4 nmol/l (pNA-substrate)
E0 =2 nmol/l (AMC-substrate)
as §3

[16] = substrate: CN(CC(=O)N[C@@H](CCCNC(=N)N)C(=O)Nc1ccc([N+](=O)[O-])cc1)C(=O)[C@@H](CCCNC(=N)N)NC(=O)OCc1ccccc1; assay: purified protein, by the assay type; settings: other: FXa bovine E0=4 nmol/l (pNA-substrate) or 2 nmol/l (AMC-substrate), substrate 0.01-0.4 mmol/l, trisbuffer 0.05 mol/l, pH 8.3, I=0.25, 37° C.
Protocol: as §1, §2
E0 =4 nmol/l (pNA-substrate)
E0 =2 nmol/l (AMC-substrate)
as §3

[17] = substrate: CS(=O)(=O)N[C@H](CCCNC(=N)N)C(=O)NCC(=O)N[C@@H](CCCNC(=N)N)C(=O)Nc1ccc([N+](=O)[O-])cc1; assay: purified protein, by the assay type; settings: other: FXa bovine E0=4 nmol/l (pNA-substrate) or 2 nmol/l (AMC-substrate), substrate 0.01-0.4 mmol/l, trisbuffer 0.05 mol/l, pH 8.3, I=0.25, 37° C.
Protocol: as §1, §2
E0 =4 nmol/l (pNA-substrate)
E0 =2 nmol/l (AMC-substrate)
as §3

[18] = Thrombin bovine E0=1.3 nmol/l, trisbuffer pH 8.3, I=0.25, 37° C.
[19] = trisbuffer pH 7.0, I=0.25, 37° C.

Chain of FXa bovine (P00743 41-180 partner limits assumed, one chain of several): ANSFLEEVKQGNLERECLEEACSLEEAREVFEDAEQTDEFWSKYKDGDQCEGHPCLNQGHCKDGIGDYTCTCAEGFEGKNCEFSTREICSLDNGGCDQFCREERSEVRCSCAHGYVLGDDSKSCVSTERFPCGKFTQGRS
T1 sequence (P00742 235-488 limits assumed): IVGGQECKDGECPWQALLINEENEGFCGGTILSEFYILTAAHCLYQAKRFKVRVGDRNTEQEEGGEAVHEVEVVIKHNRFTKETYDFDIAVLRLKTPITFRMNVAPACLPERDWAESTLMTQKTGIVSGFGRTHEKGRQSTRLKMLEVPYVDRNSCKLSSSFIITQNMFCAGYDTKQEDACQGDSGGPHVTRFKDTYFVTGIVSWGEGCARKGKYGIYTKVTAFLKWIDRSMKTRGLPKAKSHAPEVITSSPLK
T1 sequence (P00742 41-179 partner limits assumed): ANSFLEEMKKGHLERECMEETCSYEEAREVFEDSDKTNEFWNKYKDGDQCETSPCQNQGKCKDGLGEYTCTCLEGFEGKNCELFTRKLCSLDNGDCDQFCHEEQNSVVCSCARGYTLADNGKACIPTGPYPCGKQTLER

Molecule: N=C(N)NCCC[C@H](NC(=O)CNC(=O)[C@@H](CCCNC(=N)N)NC(=O)OCc1ccccc1)C(=O)Nc1ccc([N+](=O)[O-])cc1 [Example 1, N^α --Z--D--Arg--Gly--Arg--pNA.2HCl] (Cbz-[dR]-Gly-Arg-pNA)
- Km (FXa human): 380 µM
- Km (Thrombin bovine; [18]): 130 µM

Molecule: CCS(=O)(=O)N[C@H](CCCNC(=N)N)C(=O)NCC(=O)N[C@@H](CCCNC(=N)N)C(=O)Nc1ccc([N+](=O)[O-])cc1 [Example 4, N^α --Ets--D--Arg--Gly--Arg--pNA.2HCl]
- Km (FXa human): 340 µM
- Km (Thrombin bovine; [18]): 410 µM

Molecule: Bz--Ile--Glu--(γ--OR)--Gly--ARg--pNA.HCl [Example S-2222]
- Km (FXa human): 1970 µM
- Vmax (FXa human; [19]): 46 µmol/L/min
- Vmax /Km (FXa human; [19]): 0.023 min⁻¹
- Km (FXa bovine; FXa bovine E0=4 nmol/l (pNA-substrate) or 2 nmol/l (AMC-substrate), substrate 0.01-0.4 mmol/l, trisbuffer 0.05 mol/l, pH 8.3, I=0.25, 37° C.): 510 µM
- Kcat (FXa bovine; FXa bovine E0=4 nmol/l (pNA-substrate) or 2 nmol/l (AMC-substrate), trisbuffer pH 8.3, I=0.25, 37° C.): 180 sek^-1
- Kcat /Km (selectivity constant) (FXa bovine; FXa bovine, trisbuffer pH 8.3, I=0.25, 37° C.): 0.35 l/μmol · sek
- ratio for the selectivity constant FXa bovine through thrombin (Thrombin bovine; Kcat/Km FXa bovine divided by Kcat/Km thrombin bovine): 19.4
- Km (Thrombin bovine; [18]): 710 µM
- Kcat (Thrombin bovine; [18]): 13 sek^-1
- Kcat /Km (Thrombin bovine; Thrombin bovine, trisbuffer pH 8.3, I=0.25, 37° C.): 0.018 1/μmol · sek

B1: FXa bovine (Bos taurus) (protein)
chain: IVGGRDCAEGECPWQALLVNEENEGFCGGTILNEFYVLTAAHCLHQAKRFTVRVGDRNTEQEEGNEMAHEVEMTVKHSRFVKETYDFDIAVLRLKTPIRFRRNVAPACLPEKDWAEATLMTQKTGIVSGFGRTHEKGRLSSTLKMLEVPYVDRSTCKLSSSFTITPNMFCAGYDTQPEDACQGDSGGPHVTRFKDTYFVTGIVSWGEGCARKGKFGVYTKVSNFLKWIDKIMKARAGAAGSRGHSEAPATWTVPPPLPL
- Km [1]: 150 µM
- Km [2]: 40 µM
- Km [3]: 290 µM
- Km [4]: 270 µM
- kcat [4]: 260 sek^-1
- kcat/Km [4]: 0.96 l/μmol · sek
- Km [5]: 200 µM
- kcat [5]: 210 sek^-1
- kcat/Km [5]: 1.05 l/μmol · sek
- Km [6]: 120 µM
- kcat [6]: 140 sek^-1
- kcat/Km [6]: 1.14 l/μmol · sek
- Km [7]: 210 µM
- kcat [7]: 350 sek^-1
- kcat/Km [7]: 1.66 l/μmol · sek
- Km [8]: 110 µM
- Km [9]: 220 µM
- kcat [9]: 180 sek^-1
- kcat/Km [9]: 0.82 l/μmol · sek
- Km [10]: 260 µM
- kcat [10]: 280 sek^-1
- kcat/Km [10]: 1.07 l/μmol · sek
- Km [11]: 190 µM
- Km [12]: 450 µM
- kcat [12]: 245 sek^-1
- kcat/Km [12]: 0.55 l/μmol · sek
- Km [13]: 160 µM
- kcat [13]: 225 sek^-1
- kcat/Km [13]: 1.41 l/μmol · sek
- Km [14]: 220 µM
- kcat [14]: 230 sek^-1
- kcat/Km [14]: 1.04 l/μmol · sek
- Km [15]: 190 µM
- kcat [15]: 170 sek^-1
- kcat/Km [15]: 0.89 l/μmol · sek
- Km [16]: 160 µM
- kcat [16]: 220 sek^-1
- kcat/Km [16]: 1.37 l/μmol · sek
- Km [17]: 170 µM
- kcat [17]: 200 sek^-1
- kcat/Km [17]: 1.17 l/μmol · sek
